Our source for the optical density values is patent publication US20210380703A1 (RIGEL PHARMACEUTICALS, published 2021).

B1: 369_C05 (antibody, V domains shown)
VH: EVQLLESGGGLVQPGGSLRLSCAASGFTFDSYSMNWVRQAPGKGLEWVAGINYNGGYTSYADSVKGRFTISRDNSKNTLYLQMNSLRAEDTAVYYCARGANWHDTALDYWGQGTLVTVSS
VL: DIQMTQSPSSLSASVGDRVTITCRASQSISSYVNWYQQKPGKAPKLVIYATTSRHSGVPSRFSGSGSGTDFTLTISSLQPEDFATYYCQQSYNSPLTFGGGTKVEIK
notes: Group III
B2: 369_D09 (antibody, V domains shown)
VH: B1 VH with D30S, S31D, S33G, A49S, G50N
VL: B1 VL with S30L, S31T, V33L, V47L, T51A, H55A, N93D
notes: Group III
B3: 371_E07 (antibody, V domains shown)
VH: B1 VH
VL: B1 VL with S30I, V33L, V47L, T51A, R54L, H55A, N93E
notes: Group III
B4: 370_B03 (antibody, V domains shown)
VH: B1 VH with D30S, G50N, S59G
VL: B1 VL with S30L, V33L, T51A, H55A, S94N
notes: Group III
B5: 371_E06 (antibody, V domains shown)
VH: B1 VH with D30S, A49S
VL: B1 VL with S31T, V33L, V47L, T51V, R54L, N93E
notes: Group III
B6: 369_E06 (antibody, V domains shown)
VH: B1 VH with D30S, S33G, A49S
VL: B1 VL with S30I, V33L, T51A, N93D
notes: Group III
B7: 371_C01 (antibody, V domains shown)
VH: B1 VH with D30S, S33G, N35H, A49S, G50S, S59G, A106H
VL: B1 VL with S30V, V33L, V47L, T51A, N93D, S94N
notes: Group III
B8: 371_D02 (antibody, V domains shown)
VH: B1 VH with S31D, T58K
VL: B1 VL with S30V, S31T, V33L, V47L, T51A, H55A, N93D
notes: Group III
B9: 370_B11 (antibody, V domains shown)
VH: B1 VH with A49S, G55S, A106H
VL: B1 VL with S30L, V33L, T51A, S91G, N93D, S94L
notes: Group III
B10: 371_C04 (antibody, V domains shown)
VH: B1 VH with S33G, A49S, G55S, T58K, S59G
VL: B1 VL with S30L, V33L, V47L, T51A, H55A, N93S, S94T
notes: Group III
B11: 369_D03 (antibody, V domains shown)
VH: B1 VH with D30S, A49S, A106H
VL: B1 VL with S30L, S31T, V33L, T51A, H55A, N93E, S94N
notes: Group III
B12: 369_D07 (antibody, V domains shown)
VH: B1 VH with D30S, S33G, A49S, T58K, A106H
VL: B1 VL with S30V, V33L, T51A, H55A, N93D, S94L
notes: Group III
B13: 371_C12 (antibody, V domains shown)
VH: B1 VH with D30S, G55S, T58K, A106H
VL: B1 VL with S30V, V47L, T51A, H55A, N93D, S94T
notes: Group III
B14: 371_C05 (antibody, V domains shown)
VH: B1 VH with D30S, S31D, S33G, N35H, G50N, S59G
VL: B1 VL with S30L, V33L, V47L, T51A, H55A, N93D
notes: Group III
B15: 370_H02 (antibody, V domains shown)
VH: B1 VH with A49S, G55S, A106H
VL: B1 VL with S30L, S31T, V33L, V47L, T51A, H55A, N93E
notes: Group III
B16: 370_H07 (antibody, V domains shown)
VH: B1 VH with D30S, T58K
VL: B1 VL with S30L, V33L, V47L, T51A, R54L, H55A, Y92D, N93S
notes: Group III
B17: 371_B03 (antibody, V domains shown)
VH: B1 VH with D30S, S33G, N35H, G50S, A106H
VL: B1 VL with S30L, V47L, H55A, N93D, S94N
notes: Group III
B18: 370_A02 (antibody, V domains shown)
VH: B1 VH with S33G, S59G
VL: B1 VL with S30V, S31T, V33L, T51A, H55A, N93D
notes: Group III
B19: 371_F11 (antibody, V domains shown)
VH: B1 VH with D30S, A49S
VL: B1 VL with S30I, V47L, T51V, H55A, N93D, S94L
notes: Group III
B20: 371_D04 (antibody, V domains shown)
VH: B1 VH with S31D, S59G, A106H
VL: B1 VL with S30V, V47L, T51A, R54L, H55A, N93E, S94N
notes: Group III
B21: 370_F03 (antibody, V domains shown)
VH: B1 VH with D30S, S33G, A49S, G50S, G55S, T58K
VL: B1 VL with S30L, V47L, T51A, H55A, N93E, S94N
notes: Group III
B22: 370_D05 (antibody, V domains shown)
VH: B1 VH with S31D, A49S, G50N, T58K, S59G
VL: B1 VL with S30I, S31T, V33L, T51A, N93D, S94T
notes: Group III
B23: 370_B12 (antibody, V domains shown)
VH: B1 VH with D30S, S31D, A49S, T58K, S59G
VL: B1 VL with S30L, H55A, N93E, S94T
notes: Group III
B24: 371_B09 (antibody, V domains shown)
VH: B1 VH with D30S, G55S, S59G, A106H
VL: B1 VL with S30L, R54L, H55A, N93D, S94T
notes: Group III
B25: 371_E10 (antibody, V domains shown)
VH: B1 VH
VL: B1 VL with S31T, V33L, V47L, T51V, H55A
notes: Group III
B26: 371_B04 (antibody, V domains shown)
VH: B1 VH with D30S, A49S, T58K
VL: B1 VL with S30L, V33L, T51V, N93D
notes: Group III
B27: 371_A10 (antibody, V domains shown)
VH: B1 VH with S31D, A49S, T58K, S59G
VL: B1 VL with S30V, V33L, T51A, H55A, N93E, S94N
notes: Group III
B28: 371_F10 (antibody, V domains shown)
VH: B1 VH with S33G, A49S, G55S
VL: B1 VL with V33L, T51V, H55A, N93E
notes: Group III
B29: 369_G08 (antibody, V domains shown)
VH: B1 VH with A49S, G50S, T58K, S59G, A106H
VL: not shown
notes: Group III
B30: 370_D01 (antibody, V domains shown)
VH: B1 VH with D30S, A49S, G50S, S59G
VL: B1 VL with S30L, V33L, V47L, T51A, S94T
notes: Group III
B31: 371_B12 (antibody, V domains shown)
VH: B1 VH with D30S, S31D, G55S
VL: B1 VL with S30V, S31T, V33L, T51A, S94N
notes: Group III

Positions count from the first letter of the chain named.
Also: test concentration or dose not given here.

T1 sequence (P27037 20-135 limits assumed): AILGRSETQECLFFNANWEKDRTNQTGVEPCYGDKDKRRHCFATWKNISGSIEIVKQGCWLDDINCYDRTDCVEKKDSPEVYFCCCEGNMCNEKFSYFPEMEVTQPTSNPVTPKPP

The first assay addresses T1, human ACVR2A (human, UniProt P27037 20-135, limits assumed).
T1 construct: coated antigen of the initial ELISA; also called activin receptor, type II A
The assay can be described thus: ELISA. The procedure, abridged: (§1)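 mAb binding by ELISA; antigens: hu ACVR2A, mu ACVR2A; pos ctrl biotinylated goat anti-hu kappa LC; neg ctrl hu Fc.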
A general note: In an ELISA, binding on a coated surface is turned into a signal by an enzyme label.
Molecule B1 showed an optical density of 2.54 OD.
The same measure, in the same setting: the value for B2 was 3.3 OD; that for B3 was 3.09 OD; that for B4 was 3.71 OD.
Still for that read-out and setting: the value for B5 was 3 OD.
Still for that read-out and setting: the value for B6 was 3.13 OD; that for B7 was 2 OD.
As for B8, the optical density stood at 2.94 OD.
As to B9, the optical density amounted to 2.08 OD.
B10 yielded an optical density of 2.05 OD.
B11 displayed an optical density of 3.28 OD.
B12 had an optical density of 3.07 OD.
For the molecule B13, the optical density was determined as 3.1 OD.
The same measure, in the same setting: next, B14: 1.24 OD.
Molecule B15 returned an optical density of 3.3 OD.
The same measure, in the same setting: the value for B16 was 3 OD; that for B17 was 1.63 OD.
Turning to B18, the optical density is 2.9 OD.
The same measure, in the same setting: the value for B19 was 3.04 OD; that for B20 was 1.02 OD.
Still for that read-out and setting: the value for B21 was 1.14 OD.
For B22, the optical density turned out to be 2.98 OD.
Take B23: the optical density amounted to 2.92 OD.
The same measure, in the same setting: the value for B24 was 0.825 OD.
Same read-out and setting: next, B25: 3.06 OD; B26: 2.46 OD.
Same read-out and setting: next, B27: 2.81 OD; B28: 2.34 OD.
B29 came in with an optical density of 3.3 OD.
Same read-out and setting: next, B30: 3.14 OD; B31: 2.56 OD.

The target in another assay is T2, mouse ACVR2A (mouse, UniProt P27038 20-135, limits assumed).
T2 construct: coated antigen of the initial ELISA
T2 sequence (P27038 20-135 limits assumed): as the sequence (P27037 20-135 limits assumed) above, with K20R, V73I counted along it
The experiment in a line: ELISA. Put shortly: as §1
Turning to B1, the optical density came to 2.72 OD.
Same read-out and setting: the value for B2 was 3.05 OD; that for B3 was 3.35 OD; that for B4 was 3.57 OD.
B5 had an optical density of 3.03 OD.
On the same count and under the same terms, the value for B6 was 3.11 OD; that for B7 was 2.27 OD.
In turn, B8 had an optical density of 2.99 OD.
The same measure, in the same setting: the value for B9 was 2.45 OD.
Same read-out and setting: the value for B10 was 2.25 OD; that for B11 was 3.55 OD; that for B12 was 2.91 OD.
The same measure, in the same setting: the value for B13 was 3.2 OD; that for B14 was 1.35 OD.
B15: the optical density amounted to 3.39 OD.
On the same count and under the same terms, the value for B16 was 3.25 OD; that for B17 was 1.94 OD.
The same measure, in the same setting: the value for B18 was 2.91 OD.
B19 yielded an optical density of 3.25 OD.
Turning to B20, the optical density was found to be 1.29 OD.
The same measure, in the same setting: next, B21: 1.25 OD; B22: 3.12 OD.
On the same count and under the same terms, next, B23: 3.08 OD; B24: 0.827 OD; B25: 3.05 OD.
Still for that read-out and setting: next, B26: 3.13 OD.
For the molecule B27, the optical density is 2.78 OD.
For the molecule B28, the optical density was found to be 2.31 OD.
Molecule B29 had an optical density of 3.49 OD.
B30 registered an optical density of 3.17 OD.
Same read-out and setting: the value for B31 was 2.4 OD.

In a further assay the target is T3, biotinylated goat anti-human kappa light chain.
T3 construct: positive control of the ELISA
The assay can be described thus: ELISA, positive control. Put shortly: as §1
For the molecule B1, the optical density amounted to 3.02 OD.
With B2, the optical density was 3.45 OD.
On the same count and under the same terms, the value for B3 was 3.44 OD; that for B4 was 3.61 OD.
Still for that read-out and setting: the value for B5 was 3.44 OD; that for B6 was 3.52 OD; that for B7 was 3.59 OD.
Still for that read-out and setting: the value for B8 was 3.58 OD.
The molecule B9 came in with an optical density of 3.69 OD.
Still for that read-out and setting: next, B10: 3.45 OD; B11: 3.61 OD.
Same read-out and setting: next, B12: 3.26 OD.
On the same count and under the same terms, the value for B13 was 3.68 OD.
In turn, B14 registered an optical density of 3.08 OD.
For B15, the optical density stood at 3.67 OD.
Same read-out and setting: the value for B16 was 3.51 OD; that for B17 was 3.48 OD.
Still for that read-out and setting: the value for B18 was 3.62 OD; that for B19 was 3.68 OD; that for B20 was 3.3 OD.
On the same count and under the same terms, the value for B21 was 3.3 OD; that for B22 was 3.49 OD.
With B23, the optical density was determined as 3.56 OD.
As to B24, the optical density is 2.7 OD.
The same measure, in the same setting: the value for B25 was 3.49 OD; that for B26 was 2.27 OD; that for B27 was 3.48 OD.
Consider B28, for which the optical density came to 3.53 OD.
For B29, the optical density came to 3.58 OD.
The same measure, in the same setting: next, B30: 3.66 OD.
On the same count and under the same terms, next, B31: 3.48 OD.
